Source: the supplement of paper PMC10567573
± gives the standard deviation.

Assay: protein stability index of a GFP-peptide fusion (GPS, HEK-293T) (PSI 1-6); higher = more stable
[1] = treatment: DMSO, c terminus: a fixed tail appended
[2] = treatment: MLN4924 1 uM, 8 h, c terminus: a fixed tail appended
[3] = treatment: DMSO, c terminus: native
[4] = treatment: MLN4924 1 uM, 8 h, c terminus: native
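Also: 24-mer peptide tiles fused after GFP, lentivirally expressed, FACS-sorted into six equal bins by GFP/DsRed ratio, decoded by Illumina sequencing, PSI is the read-weighted mean bin number.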

VQILCHTYWEHWTSQGQVRMRLFG [RTP4] showed a protein stability index [1] of 2.45 ± 0.87 and a protein stability index [2] of 2.52 ± 1.1.
AIEKAFQLWSNVTPLTFTKVSEGQ [MMP1] gave a protein stability index [1] of 2.45 ± 0.49 and a protein stability index [2] of 2.3 ± 0.33.
NKLPEGVPQPARMPYISDKHPRQT [KLHL20] gave a protein stability index [1] of 4.69 ± 0.12 and a protein stability index [2] of 4.77 ± 0.15.
In the case of HIFNTLRSHLIDKGMLTSTTEDE [CDS2], the protein stability index [3] is reported as 2.71 ± 0.042 and the protein stability index [4] is reported as 3.23 ± 0.39.
GSGGTRGPPSRGGHMDDGGYSMNF [RBMX] showed a protein stability index [1] of 3.96 ± 0.24 and a protein stability index [2] of 4 ± 0.43.
QMMSATAQNREPESVEQLESRIVE [SNX8] gave a protein stability index [1] of 5.37 ± 0.17 and a protein stability index [2] of 5.56 ± 0.24.
With DPKRRMTIAQSLEHSWIKAIRRRN [DAPK3] the protein stability index [1] was 3.67 ± 0.33 and the protein stability index [2] was 3.91 ± 0.35.
In the case of FWNSPSSPSSSAASSSSPSSSSAV [RHOBTB2], the protein stability index [1] is reported as 4.41 ± 0.14 and the protein stability index [2] is reported as 4.4 ± 0.089.
Work on TSFQWVTKWVDYSNKYGFGYQLSD [PLK2] yielded a protein stability index [1] of 2.06 ± 0.57 and a protein stability index [2] of 2.08 ± 0.31.
For ILAAACESETRKAAKRMRLEIYQS [NOL4L], the protein stability index [1] was 2.47 ± 0.24 and the protein stability index [2] was 2.54 ± 0.05.
In the case of NKEYIKRLLMSQADKMTAEEVDQM [MYL5], the protein stability index [1] is reported as 4.53 ± 0.28 and the protein stability index [2] is reported as 4.48 ± 0.23.
With GLALCPEVQDLLEGCELPDLPSSL [SMG5] the protein stability index [1] was 4.05 ± 0.25 and the protein stability index [2] was 3.96 ± 0.25.
With WTNGSGLALCQRYYHRGHVDPAND [MCOLN1] the protein stability index [1] was 3.11 ± 0.12 and the protein stability index [2] was 3.12 ± 0.21.
With KLATEAGVEVIVRISHTLYDLDKI [CRY1] the protein stability index [1] was 2.97 ± 0.32 and the protein stability index [2] was 3.13 ± 0.71.
KEISRKRRSIRYGREVELKPYIAA [PTPRD] showed a protein stability index [1] of 3.27 ± 0.17 and a protein stability index [2] of 3.65 ± 0.44.
Work on ALGAPSKSPSSPQAAFTQQGMEGI [TBX5] yielded a protein stability index [1] of 4.59 ± 0.37 and a protein stability index [2] of 4.51 ± 0.19.
GDGVPPRSLQDGTREGFGHSTSLK [LCOR] showed a protein stability index [1] of 5.08 ± 0.24 and a protein stability index [2] of 4.92 ± 0.22.
With KDKEYAEIIRKQVSATKAEAEKDG [UBE2R2] the protein stability index [1] was 5.39 ± 0.29 and the protein stability index [2] was 5.38 ± 0.21.
With KVGKLAATAVGGGFFLLQLANHTG [FUNDC2] the protein stability index [1] was 2.38 ± 0.59 and the protein stability index [2] was 2.46 ± 0.87.
YSDKNAKLTKESYPVVVAESMYGD [TENT5D] showed a protein stability index [1] of 4.39 ± 0.054 and a protein stability index [2] of 4.43 ± 0.22.
PKSPATPKQLRLINQPLPDLKNVK [MAP2] gave a protein stability index [1] of 4.51 ± 0.27 and a protein stability index [2] of 4.793 ± 0.034.
For TSGVVFTGLMVSLLCLLHFSIVSV [RTN2], the protein stability index [1] was 3 ± 0.53 and the protein stability index [2] was 3.07 ± 0.24.
PGAYYPYERTLGQYQYERYGAVEL [IRX6] showed a protein stability index [1] of 2.3 ± 0.33 and a protein stability index [2] of 2.41 ± 0.21.
For LENELDLKLVSFSKLCTSYSHSST [GOSR1], the protein stability index [1] was 2.98 ± 0.13 and the protein stability index [2] was 2.93 ± 0.16.
Work on MGSQGSPVKSYDYLLKFLLVGDSD [RAB40C] yielded a protein stability index [1] of 2.29 ± 0.28 and a protein stability index [2] of 2.37 ± 0.099.
With VNDNAPEVLLASLANPVLESTPVG [PCDHGC5] the protein stability index [1] was 4.55 ± 0.18 and the protein stability index [2] was 4.51 ± 0.12.
In the case of AKIEVEKLKAIRLRHDLPEYNSL [RAD54B], the protein stability index [3] is reported as 3.62 ± 0.21 and the protein stability index [4] is reported as 3.81 ± 0.2.
For GMDPERLKAFNMFVRLFVDENLDR [NOL4L], the protein stability index [1] was 2.1 ± 0.42 and the protein stability index [2] was 2.39 ± 0.37.
Sequence SPISSISPGLHSFTDHQRLMKRRK [KCNK9] has a protein stability index [1] of 4.7 ± 0.28 and a protein stability index [2] of 4.8 ± 0.16.
DRGLRGFPKNRVLEGVIDRYQQSK [TRIM9] showed a protein stability index [1] of 3.98 ± 0.35 and a protein stability index [2] of 4.01 ± 0.29.
Work on MAYDQFLAICRPLTYSTRMSQTVQ [OR3A1] yielded a protein stability index [1] of 2.25 ± 0.33 and a protein stability index [2] of 2.21 ± 0.29.
Sequence DLLAYGAKAELPKYKSFNRTAMPY [MYOZ1] has a protein stability index [1] of 2.42 ± 0.12 and a protein stability index [2] of 2.29 ± 0.19.
In the case of KKKNTNKQEMGTYLRFIVSRMKER [ZMYND11], the protein stability index [1] is reported as 2.47 ± 0.16 and the protein stability index [2] is reported as 2.92 ± 0.25.
Work on NDPSGSEEADFLSAETGSPRLTMH [IRX6] yielded a protein stability index [1] of 5.16 ± 0.083 and a protein stability index [2] of 5.2 ± 0.057.
Work on DQDYLHSLGKARTAQVQKDARIGE [FLOT1] yielded a protein stability index [1] of 4.86 ± 0.16 and a protein stability index [2] of 4.74 ± 0.19.
Work on QFVEGVRMEEIVEGCTGALHILAR [CTNNB1] yielded a protein stability index [1] of 3.12 ± 0.52 and a protein stability index [2] of 3.05 ± 0.64.
Work on ELKLEQQEAAERESKLLRDLSAAN [LRRC45] yielded a protein stability index [1] of 4.62 ± 0.18 and a protein stability index [2] of 4.77 ± 0.23.
For QVTCSILAYLPFKLEKSIDSYYRL [PCDHGA10], the protein stability index [1] was 2.79 ± 1.1 and the protein stability index [2] was 2.05 ± 0.81.
KSYPSSELRNMCDEHIASEEPAEK [CLCN6] showed a protein stability index [1] of 5.53 ± 0.2 and a protein stability index [2] of 5.44 ± 0.27.
With PVTSIGIDNLGLKLEENLQETHSA [SLC35F2] the protein stability index [1] was 5.06 ± 0.19 and the protein stability index [2] was 5 ± 0.11.
For EPHPRPLLQRELMVPGTRHSAVLR [TNXB], the protein stability index [1] was 3.93 ± 0.42 and the protein stability index [2] was 4.2 ± 0.59.
In the case of LGPGALHFDLRDDDDAEEEGPKRE [TCF25], the protein stability index [1] is reported as 5.17 ± 0.29 and the protein stability index [2] is reported as 5.54 ± 0.13.
For YPCVLATEGFTSGRHYWEVEVGDK [TRIM39], the protein stability index [1] was 2.59 ± 0.62 and the protein stability index [2] was 3.27 ± 0.68.
Sequence GDGLLVGSEKVTMQNLNDRLASYL [KRT16] has a protein stability index [1] of 2.66 ± 0.17 and a protein stability index [2] of 2.78 ± 0.32.
For RREQAAAAPFPSPAPASPAISVVG [TFE3], the protein stability index [1] was 4.22 ± 0.35 and the protein stability index [2] was 4.24 ± 0.18.
